The results in this text go back to US20200369765A1 (INNATE PHARMA, published 2020).

Numbering of substitutions follows the chain as printed.

The target of test [1] is T1, Human Siglec-9 mutant M8 (human, UniProt Q9Y336 18-463).
T1 construct: Expressed on HEK293T cells; also called Mutant 8
Briefly: flow cytometry, HEK293T transfectants; '-' indicates full loss of binding. (In general: A flow cytometer gives signals particle by particle.)

The target of another test is T2, Siglec-9 Fc protein (human).
T2 construct: Produced in CHO cells; also called human Siglec-9 Fc
T2 sequence (chain, as listed by the source limits assumed): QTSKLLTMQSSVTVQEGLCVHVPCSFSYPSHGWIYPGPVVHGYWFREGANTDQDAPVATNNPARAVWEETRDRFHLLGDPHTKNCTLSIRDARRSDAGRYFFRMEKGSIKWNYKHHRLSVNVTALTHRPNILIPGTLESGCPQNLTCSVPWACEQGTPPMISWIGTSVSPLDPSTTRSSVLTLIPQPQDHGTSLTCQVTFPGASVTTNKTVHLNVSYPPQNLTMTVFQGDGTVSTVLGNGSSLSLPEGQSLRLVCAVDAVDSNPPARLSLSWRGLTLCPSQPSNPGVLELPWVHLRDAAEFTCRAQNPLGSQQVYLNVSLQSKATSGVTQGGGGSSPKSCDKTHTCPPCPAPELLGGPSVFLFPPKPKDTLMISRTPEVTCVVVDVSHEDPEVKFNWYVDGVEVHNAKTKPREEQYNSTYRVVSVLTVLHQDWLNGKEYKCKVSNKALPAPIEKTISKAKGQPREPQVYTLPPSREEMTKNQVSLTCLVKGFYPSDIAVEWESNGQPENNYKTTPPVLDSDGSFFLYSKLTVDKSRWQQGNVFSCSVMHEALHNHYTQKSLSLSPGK
Briefly: SPR (Biacore T200), Fab over immobilized Siglec-9 Fc, 1:1 model. How it is done:
(§1) SPR measurements were performed on a Biacore™ T200 apparatus (Biacore™ GE Healthcare) at 25° C. In all Biacore™ experiments HBS-EP+(Biacore™ GE Healthcare) and NaOH 10 mM served as running buffer and regeneration buffer respectively. Sensorgrams were analyzed with Biacore™ T200 Evaluation software. Human siglec-9 and -7 multimeric proteins were cloned, produced and purified at Innate Pharma.
(§2) Proteins were immobilized covalently to carboxyl groups in the dextran layer on a Sensor Chip CM5. The chip surface was activated with EDC/NHS (N-ethyl-N′-(3-dimethylaminopropyl) carbodiamide hydrochloride and N-hydroxysuccinimide (Biacore™ GE Healthcare). Proteins were diluted to 10 μg/ml in coupling buffer (10 mM acetate, pH 4.2 & 5.0) and injected until the appropriate immobilization level was reached (i.e., 600 to 2000RU). Deactivation of the remaining activated groups was performed using 100 mM ethanolamine pH 8 (Biacore™, GE Healthcare).
(§3) The affinity study was carried out according to a standard Kinetic protocol recommended by the manufacturer (Biacore™ GE Healthcare kinetic wizard). […] The entire sensorgram sets were fitted using the 1:1 kinetic binding model. Monovalent affinities and kinetic association and dissociation rate constants are shown below in Table 2 below.

Test [2] addresses T3, Human Siglec-9 mutant M15 (human, UniProt Q9Y336 18-463).
T3 construct: Expressed on HEK293T cells; also called Mutant 15
As to the kind of experiment: flow cytometry, HEK293T transfectants.

The target in another test is T4, Human Siglec-9 mutant M7 (human, UniProt Q9Y336 18-463).
T4 construct: Expressed on HEK293T cells; also called Mutant 7
T4 sequence (Q9Y336 other isoform, or with tags, fused parts or gaps mutant): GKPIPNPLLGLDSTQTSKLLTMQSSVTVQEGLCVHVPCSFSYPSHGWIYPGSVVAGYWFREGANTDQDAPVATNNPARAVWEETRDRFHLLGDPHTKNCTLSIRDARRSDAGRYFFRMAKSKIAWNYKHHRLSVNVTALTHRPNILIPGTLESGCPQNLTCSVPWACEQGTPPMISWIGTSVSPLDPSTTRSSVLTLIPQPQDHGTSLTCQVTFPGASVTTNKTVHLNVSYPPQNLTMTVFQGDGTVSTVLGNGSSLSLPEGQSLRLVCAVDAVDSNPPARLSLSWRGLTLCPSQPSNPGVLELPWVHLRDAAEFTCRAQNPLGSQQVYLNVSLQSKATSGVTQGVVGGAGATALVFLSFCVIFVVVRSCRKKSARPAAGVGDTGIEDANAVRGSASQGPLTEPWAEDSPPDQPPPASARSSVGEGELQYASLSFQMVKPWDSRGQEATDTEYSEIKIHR
As to the kind of experiment: flow cytometry, HEK293T transfectants.

Test [3] has as its target T5, Human Siglec-9 mutant M11 (human, UniProt Q9Y336 18-463).
T5 construct: Expressed on HEK293T cells; also called Mutant 11
Briefly: flow cytometry, HEK293T transfectants.

The target of test [4] is T6, Human Siglec-9 mutant M14 (human, UniProt Q9Y336 18-463).
T6 construct: Expressed on HEK293T cells; also called Mutant 14
As to the kind of experiment: flow cytometry, HEK293T transfectants.

The target of a further test is T7, Siglec-7 Fc protein (human).
T7 construct: Produced in CHO cells; also called human Siglec-7 Fc
T7 sequence (chain, as listed by the source limits assumed): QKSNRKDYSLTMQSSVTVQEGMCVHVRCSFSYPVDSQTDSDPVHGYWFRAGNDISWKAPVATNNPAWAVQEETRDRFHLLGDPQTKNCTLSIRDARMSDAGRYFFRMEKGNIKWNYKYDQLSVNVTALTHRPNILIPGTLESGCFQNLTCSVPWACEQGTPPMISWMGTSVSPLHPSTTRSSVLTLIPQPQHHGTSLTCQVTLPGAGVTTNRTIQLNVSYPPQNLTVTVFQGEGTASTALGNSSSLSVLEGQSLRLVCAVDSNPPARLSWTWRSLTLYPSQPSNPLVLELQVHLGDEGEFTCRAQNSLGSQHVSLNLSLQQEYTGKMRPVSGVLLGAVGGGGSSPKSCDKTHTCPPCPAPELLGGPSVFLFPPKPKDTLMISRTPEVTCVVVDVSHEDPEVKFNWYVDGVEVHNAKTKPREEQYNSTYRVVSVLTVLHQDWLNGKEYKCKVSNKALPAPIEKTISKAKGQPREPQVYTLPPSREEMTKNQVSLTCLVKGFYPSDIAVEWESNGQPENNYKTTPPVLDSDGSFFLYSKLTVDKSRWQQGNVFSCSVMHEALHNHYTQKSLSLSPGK
Briefly: SPR (Biacore T200), Fab over immobilized Siglec-7 Fc, 1:1 model. The method, then: as §1, §2, §3
On the technique in general: Surface plasmon resonance follows binding to a sensor surface in real time, without labels.

Test [5] addresses T5, Human Siglec-9 mutant M11. As to the kind of experiment: flow cytometry, HEK293T transfectants; '-' indicates full loss of binding.
The target in test [6] is T8, Human Siglec-9 mutant M6 (human, UniProt Q9Y336 18-463).
T8 construct: Expressed on HEK293T cells; also called Mutant 6
T8 sequence (Q9Y336 other isoform, or with tags, fused parts or gaps mutant): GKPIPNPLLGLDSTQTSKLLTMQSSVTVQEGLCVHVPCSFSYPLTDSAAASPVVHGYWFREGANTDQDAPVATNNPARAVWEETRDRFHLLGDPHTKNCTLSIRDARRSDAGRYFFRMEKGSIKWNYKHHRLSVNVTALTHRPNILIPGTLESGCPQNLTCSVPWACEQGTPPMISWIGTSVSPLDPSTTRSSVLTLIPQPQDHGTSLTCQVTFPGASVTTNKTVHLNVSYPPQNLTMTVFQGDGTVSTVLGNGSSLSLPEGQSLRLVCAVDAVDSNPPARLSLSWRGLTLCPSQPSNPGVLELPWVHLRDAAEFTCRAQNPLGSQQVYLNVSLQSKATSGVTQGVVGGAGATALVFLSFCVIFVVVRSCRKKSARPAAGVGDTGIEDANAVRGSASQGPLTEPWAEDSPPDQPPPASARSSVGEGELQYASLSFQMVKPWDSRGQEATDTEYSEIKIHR
Briefly: flow cytometry, HEK293T transfectants.

In another test the target is T9, Human Siglec-9 mutant M2 (human, UniProt Q9Y336 18-463).
T9 construct: Expressed on HEK293T cells; also called Mutant 2
T9 sequence (Q9Y336 other isoform, or with tags, fused parts or gaps mutant): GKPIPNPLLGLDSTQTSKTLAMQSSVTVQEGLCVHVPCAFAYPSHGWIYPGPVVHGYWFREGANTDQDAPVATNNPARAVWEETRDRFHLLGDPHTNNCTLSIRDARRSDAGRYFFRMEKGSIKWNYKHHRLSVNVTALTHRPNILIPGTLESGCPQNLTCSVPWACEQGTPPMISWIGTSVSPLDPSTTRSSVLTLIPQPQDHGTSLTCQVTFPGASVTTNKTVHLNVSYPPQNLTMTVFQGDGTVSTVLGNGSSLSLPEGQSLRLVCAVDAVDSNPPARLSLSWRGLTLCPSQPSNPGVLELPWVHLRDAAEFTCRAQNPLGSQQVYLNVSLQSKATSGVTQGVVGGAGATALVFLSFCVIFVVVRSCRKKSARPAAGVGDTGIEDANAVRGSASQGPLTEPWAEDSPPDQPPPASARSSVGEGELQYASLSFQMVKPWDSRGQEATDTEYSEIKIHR
Briefly: flow cytometry, HEK293T transfectants.

The target in test [7] is T1, Human Siglec-9 mutant M8. Briefly: flow cytometry, HEK293T transfectants.
A further test deals with T10, Human Siglec-9 mutant M5 (human, UniProt Q9Y336 18-463).
T10 construct: Expressed on HEK293T cells; also called Mutant 5
T10 sequence (Q9Y336 other isoform, or with tags, fused parts or gaps mutant): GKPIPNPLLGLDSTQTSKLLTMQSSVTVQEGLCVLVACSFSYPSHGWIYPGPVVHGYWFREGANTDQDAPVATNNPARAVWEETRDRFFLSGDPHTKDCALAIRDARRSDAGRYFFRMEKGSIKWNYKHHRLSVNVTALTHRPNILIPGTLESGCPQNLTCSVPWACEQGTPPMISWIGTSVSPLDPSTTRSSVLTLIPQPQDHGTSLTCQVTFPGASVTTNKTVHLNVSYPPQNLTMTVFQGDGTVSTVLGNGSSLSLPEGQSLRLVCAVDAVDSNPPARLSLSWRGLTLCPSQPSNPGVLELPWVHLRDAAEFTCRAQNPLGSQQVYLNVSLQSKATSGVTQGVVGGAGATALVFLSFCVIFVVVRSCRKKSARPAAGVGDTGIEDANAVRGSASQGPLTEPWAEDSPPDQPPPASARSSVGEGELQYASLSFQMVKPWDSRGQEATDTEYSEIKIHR
Briefly: flow cytometry, HEK293T transfectants.

The target of test [8] is T8, Human Siglec-9 mutant M6. Briefly: flow cytometry, HEK293T transfectants; '-' indicates full loss of binding.
Test [9] has as its target T11, Human Siglec-9 mutant M16 (human, UniProt Q9Y336 18-463).
T11 construct: Expressed on HEK293T cells; also called Mutant 16
The test is described as above.

T1 sequence (Q9Y336 other isoform, or with tags, fused parts or gaps mutant): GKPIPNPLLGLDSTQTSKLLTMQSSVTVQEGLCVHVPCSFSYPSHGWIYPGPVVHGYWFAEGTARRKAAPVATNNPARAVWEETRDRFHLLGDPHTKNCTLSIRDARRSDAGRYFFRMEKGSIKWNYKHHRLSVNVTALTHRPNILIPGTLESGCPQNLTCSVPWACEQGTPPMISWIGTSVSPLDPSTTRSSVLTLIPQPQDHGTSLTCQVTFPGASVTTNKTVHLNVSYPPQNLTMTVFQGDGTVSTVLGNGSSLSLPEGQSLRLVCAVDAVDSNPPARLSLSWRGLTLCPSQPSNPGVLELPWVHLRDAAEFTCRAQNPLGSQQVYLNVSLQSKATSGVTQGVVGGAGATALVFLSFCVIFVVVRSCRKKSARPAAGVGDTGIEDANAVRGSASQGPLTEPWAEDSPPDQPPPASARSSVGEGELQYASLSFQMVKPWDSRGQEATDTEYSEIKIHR
T3 sequence (Q9Y336 other isoform, or with tags, fused parts or gaps mutant): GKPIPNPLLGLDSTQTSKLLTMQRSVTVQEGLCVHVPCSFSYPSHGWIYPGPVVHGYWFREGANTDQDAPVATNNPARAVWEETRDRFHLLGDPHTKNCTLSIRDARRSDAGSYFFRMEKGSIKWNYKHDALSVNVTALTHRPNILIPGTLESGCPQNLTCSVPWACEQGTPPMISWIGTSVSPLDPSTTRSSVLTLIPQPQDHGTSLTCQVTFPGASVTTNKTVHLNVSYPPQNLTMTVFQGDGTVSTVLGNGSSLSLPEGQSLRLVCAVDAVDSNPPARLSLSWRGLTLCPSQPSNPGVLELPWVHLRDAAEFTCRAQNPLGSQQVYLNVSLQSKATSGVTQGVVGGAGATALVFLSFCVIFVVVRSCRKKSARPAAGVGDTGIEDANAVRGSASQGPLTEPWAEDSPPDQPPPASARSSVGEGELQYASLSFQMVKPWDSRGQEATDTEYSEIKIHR
T5 sequence (Q9Y336 other isoform, or with tags, fused parts or gaps mutant): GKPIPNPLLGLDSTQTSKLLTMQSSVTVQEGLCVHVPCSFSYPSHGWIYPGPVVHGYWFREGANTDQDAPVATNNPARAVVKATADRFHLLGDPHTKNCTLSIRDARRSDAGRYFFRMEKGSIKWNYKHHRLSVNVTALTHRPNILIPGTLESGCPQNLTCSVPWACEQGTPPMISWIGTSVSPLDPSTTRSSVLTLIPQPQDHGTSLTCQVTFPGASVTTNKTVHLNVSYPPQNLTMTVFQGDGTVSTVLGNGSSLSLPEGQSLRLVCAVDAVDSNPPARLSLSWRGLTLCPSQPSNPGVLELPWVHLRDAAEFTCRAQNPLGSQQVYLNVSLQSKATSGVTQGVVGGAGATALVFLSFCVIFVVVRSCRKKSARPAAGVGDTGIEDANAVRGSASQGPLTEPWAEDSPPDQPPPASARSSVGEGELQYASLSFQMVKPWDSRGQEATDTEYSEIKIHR
T11 sequence (Q9Y336 other isoform, or with tags, fused parts or gaps mutant): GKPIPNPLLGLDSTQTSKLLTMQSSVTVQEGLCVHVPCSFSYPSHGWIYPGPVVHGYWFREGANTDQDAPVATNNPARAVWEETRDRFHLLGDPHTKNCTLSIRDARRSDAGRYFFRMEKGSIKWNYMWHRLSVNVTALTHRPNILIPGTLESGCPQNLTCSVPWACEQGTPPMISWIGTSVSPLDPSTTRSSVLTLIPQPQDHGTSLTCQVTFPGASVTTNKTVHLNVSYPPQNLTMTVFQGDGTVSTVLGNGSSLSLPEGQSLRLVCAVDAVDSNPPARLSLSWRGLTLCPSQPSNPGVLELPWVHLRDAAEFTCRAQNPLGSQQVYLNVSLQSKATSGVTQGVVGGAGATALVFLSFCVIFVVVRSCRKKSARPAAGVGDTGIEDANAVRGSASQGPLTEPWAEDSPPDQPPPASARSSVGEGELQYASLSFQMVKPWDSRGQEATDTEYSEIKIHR

B1: Fab.C (Fab of mAbC) (Fab, V domains shown)
VH: QIQLVQSGPELKKPGETVKISCKASGYTFTNYEMNWVKEAPGKGLKWMGWINTYTGESTYADDFKGRFAFSLETSASTVYLQINNLKDEDVATYFCVRDDYGRSYGFAYWGQGTLVTVSA
VL: NIVLTQSPASLTVSLGQRANISCRASESVDSYGNSFMHWYQQKPGQPPKLLIYLASKLESGVPARFSGSGSRTDFTLTIDPVETDDAATYYCHQNNEDPPWTFGGGTKLEIK
Broadly, the Kd is the equilibrium constant for the complex coming apart. For orientation: koff means the rate constant with which the complex falls apart. In the case of B1, the binding result was “no binding” in the test with Human Siglec-9 mutant M8 [1]; “binds” in test [2]; “binds” with Human Siglec-9 mutant M7; “binds” in [3]; “binds” in [4]. Besides, the Kd with Siglec-9 Fc protein was determined as 0.55 nM. The koff with Siglec-9 Fc protein was 0.00043 s⁻¹.

B2: Fab1 (Fab of mAb1) (Fab, V domains shown)
VH: DVQLQESGPGLVKPSQSLSLTCTVTGYSITGGFAWNWIRQFPGNTLEWMGYIGYGGSTSYNPSLNSRISITRDTSKNHFFLQFNSVTTDDSATYYCARGDYLFAYWGQGTLVTVSA
VL: DIVMTQSHKFMSTSVGDRVSITCKASQDVNTAVAWYQQKPGQSPKLLIYSASYRYTGVPDRFTGSGSGTDFTFTISSVQAEDLAVYYCQQHYSTPRTFGGGTKLEIK
Turning to B2, the Kd with Siglec-7 Fc protein was 0.06 nM; with Siglec-9 Fc protein, 0.4 nM. Moreover, the koff in the test with Siglec-7 Fc protein was 4e-05 s⁻¹; in the test with Siglec-9 Fc protein it was 0.00016 s⁻¹. The binding result in test [5] is recorded as “no binding”; with Human Siglec-9 mutant M6 [6], “binds”; in the test with Human Siglec-9 mutant M7 it was “binds”; with Human Siglec-9 mutant M2, “binds”; with Human Siglec-9 mutant M8 [7], “binds”; with Human Siglec-9 mutant M5, “binds”.

B3: Fab2 (Fab of mAb2) (Fab, V domains shown)
VH: B2 VH with D1E, D89E
VL: B2 VL
notes: Fab fragment of the antibody
As for B3, the Kd with Siglec-7 Fc protein worked out at 0.07 nM; with Siglec-9 Fc protein, 0.8 nM. In addition, the results for the koff in the test with Siglec-7 Fc protein and in the test with Siglec-9 Fc protein were 4e-05 s⁻¹ and 0.00017 s⁻¹, respectively.

B4: Fab.F (Fab of mAbF) (Fab, V domains shown)
VH: QVQLQQSGPEVVRPGVSVKISCKGSGYTFTDYSMHWVKQSHAKSLEWIGVISTYNGNTNYNQKFKGKATMTVDKSSSTAYMELARLTSEDSAIYYCARRGYYGSSSWFGYWGQGTLVTVSA
VL: DIVMTQSQKFMSTSVGDRVSVTCKASQNVGTDVAWYQQKPGQSPEALIYSASYRYSGVPDRFTGSGSGADFTLTISNVQSEDLAEYFCQQYNSFPYTFGGGTKLEIK
Regarding B4, the binding result in [5] was “no binding”; with Human Siglec-9 mutant M6 [6] it was “binds”; with Human Siglec-9 mutant M7 it was “binds”; in the test with Human Siglec-9 mutant M2, “binds”; with Human Siglec-9 mutant M5, “binds”. Besides, the affinity in the test with Siglec-9 Fc protein, expressed as Kd, was 1 nM. Also, the koff with Siglec-9 Fc protein is 0.00046 s⁻¹.

B5: Fab.D (Fab of mAbD) (Fab, V domains shown)
VH: QIQLVQSGPELKKPGETVKISCKASGYTFTDYSMHWVKQAPGKGLKWMGWIITETGEPTYADDFRGRFAFSLETSANTAYLQINNLKNEDTATYFCARDFDGYWGQGTTLTVSS
VL: DILMTQSPASLSASVGETVTITCRASENIYSYLAWYQQKRGKSPQFLVYNAKTLTEGVPSRFRGSGSGTQFSLKINSLQPEDFGTYYCQHHYGFPWTFGGGTKLEIK
Turning to B5, the binding result with Human Siglec-9 mutant M6 [8] is on record as “no binding”; in test [2], “binds”; in test [3] it was “binds”; in the test with Human Siglec-9 mutant M8 [7], “binds”; in [4] it was “binds”. The molecule also yielded a Kd with Siglec-9 Fc protein of 4.12 nM. Besides, the koff with Siglec-9 Fc protein is 0.00011 s⁻¹.

B6: Fab.A (Fab of mAbA) (Fab, V domains shown)
VH: QVQLQQPGAELVKPGSPVKLSCKASYFTFTSYWMHWVRQRPGQGLEWIGEINPSNGHTNYNEKFESKATLTVDRSSSTAYMQLSSLTSEDSAVFYCANGVESYDFDDALDYWGQGTSVTVSS
VL: DIQMTQTTSSLSASLGDRVTISCRASQDINNYLNWYQQKPDGTIKLLIYYTSRLHSGVPSRFSGSGSGTDYSLTINNLEQEDIATYFCQQGNTLPFTFGGGTKLEIK
As for B6, the binding result in [9] is listed as “no binding”; in test [2], “binds”; in the test with Human Siglec-9 mutant M7 it was “binds”; with Human Siglec-9 mutant M8 [7] it was “binds”. In the test with Siglec-9 Fc protein, this molecule displayed a Kd of 0.04 nM. Moreover, the koff in the test with Siglec-9 Fc protein amounted to 2.5e-05 s⁻¹.

B7: Fab.B (Fab of mAbB) (Fab, V domains shown)
VH: QVQLQQPGAELVKPGASVKLSCKASVYTFTSYWMHWVKQRPGQGLEWIGEINPSNGHTNYNEKFKTKAKLTVDKSSSTAYMQLSSLTSEDSAVYFCANGVETYDFDDAMDYWGQGTSVTVSS
VL: B6 VL with I44V, Y50F, N76S, N92D, L94F
B7: the binding result in test [9] was “no binding”; in [2] it was “binds”; with Human Siglec-9 mutant M7, “binds”; with Human Siglec-9 mutant M8 [7], “binds”. Moreover, the Kd with Siglec-9 Fc protein came out at 0.37 nM. This molecule yielded a koff in the test with Siglec-9 Fc protein of 0.00031 s⁻¹.

B8: Fab.E (Fab of mAbE) (Fab, V domains shown)
VH: DVQLVESGGGLVQPGGSRKLSCAASGFTFSTFGMHWVRQAPEKGLEWVAYISSGSNAIYYADTVKGRFTISRDNPKNTLFLQMTSLRSEDTAMYYCASPGYGAWFAYWGQGTLVTVSA
VL: ENVLTQSPAIMSASPGEKVTMTCRASSSVSSAYLHWYQQKSGASPKLWIYSTSNLASGVPARFSGSGSGTSYSLTISSVEAEDAATYYCQQYSAYPYTFGGGTKLEIK
For B8, the binding result in test [5] is listed as “no binding”; with Human Siglec-9 mutant M6 [6] it was “binds”; with Human Siglec-9 mutant M7, “binds”; in the test with Human Siglec-9 mutant M2, “binds”; with Human Siglec-9 mutant M5, “binds”. In the test with Siglec-9 Fc protein, this molecule gave a Kd of 1 nM. In the test with Siglec-9 Fc protein, the koff came to 0.0019 s⁻¹.
